Data taken from patent publication US7566535B2, “Enhanced oligonucleotide-mediated nucleic acid sequence alteration” (University of Delaware, priority 2002, dated 2009).
Several values for one entry are separate records, joined by “and”; a condition that tells them apart may be missing. Equal values may be shown once. In the oligonucleotide strings, read from the 5' end, every base follows the letter of its sugar. An asterisk marks phosphorothioate; unmarked linkages are phosphodiester. Other units and linkages are bracketed, terminal groups are in braces. A string of capitals states the bases alone. d = 2'-deoxy (DNA)

How the values were obtained:
pAURHYG(x)eGFP [1] = assay: Hygromycin gene correction in yeast LSY678 with or without trichostatin A
pAURHYG(x)eGFP [2] = assay: Strand bias of hygromycin gene correction in rad1 and rad10 yeast mutants
pAURNeo(−)FlAsH plasmid = assay: FlAsH fluorescence assay of neomycin phosphotransferase gene correction in yeast
[3] = test system: mutant kanamycin gene in plasmid pK^Sm4021; assay: Gene repair of plasmid pK^Sm4021 in yeast cell-free extracts, kan^r/amp^r colony readout in E. coli DH10B
CYC1 gene = CYC1 gene repair in diploid yeast strains, growth on glycerol (YPG)
[4] = test system: human β-globin gene in YAC; assay: Dual targeting: second-site editing of β-globin gene in YAC, SNaPshot and sequencing; settings: HU, TSA, RAD51 overexpression
[5] = YMH51 (wild-type CYC1), 5 μg oligo
[6] = YMH55 with PYNMRE11, 5 μg oligo
[7] = YMH55 with PYNRAD51, 5 μg oligo
[8] = YMH55 with PYNRAD52, 5 μg oligo
[9] = YMH55 with PYNRAD54, 5 μg oligo
[10] = YMH55 with PYNRAD55, 5 μg oligo
[11] = YMH55 with pYN132 (empty vector), 5 μg oligo
[12] = YMH55 with pYNβ (lambda beta protein expression), 5 μg oligo

Molecule: CC(/C=C/C(=O)NO)=C\[C@@H](C)C(=O)c1ccc(N(C)C)cc1 [trichostatin A, reference compound]
- increase of efficiency of gene alteration (pAURHYG(x)eGFP [1]; 50 μg/mL during the recovery period): ≥ 3 fold
- increase of efficiency of gene alteration (pAURHYG(x)eGFP [1]; 50 μg/mL for four hours prior to electroporation): up to several-fold

B1: Kan70T: non-specific, control oligonucleotide not complementary to the target sequence, SEQ ID NO: 11 (nucleic acid)
DNA: CATCAGAGCAGCCAATTGTCTGTTGTGCCCAGTCGTAGCCGAATAGCCTCTCCACCCAAGCGGCCGGAG
modifications: listed as DNA, chemistry not given here
- Colonies on Hygromycin (pAURHYG(x)eGFP [2]; rad1 mutant): 0
- Colonies on Hygromycin (pAURHYG(x)eGFP [2]; rad10 mutant): 0

B2: KanGG: chimeric, RNA-DNA double-hairpin oligonucleotide (SEQ ID NO: 1) correcting the mutant kanamycin gene of pK^Sm4021 (nucleic acid)
chain: GCUAUUCGGCUAGGACUGGGCACAAUUUUTTGTGCCCAGTCGTAGCCGAATAGCCTCTCCUUUUGGAGAG
modifications: chimeric RNA-DNA double hairpin, segment chemistry not given here
- corrected cells by green fluorescence (confocal microscopy) (pAURNeo(−)FlAsH plasmid; LSY678 and LSY378): many corrected cells
- number of cells exhibiting green fluorescence (pAURNeo(−)FlAsH plasmid; strain lacking RAD52 relative to LSY678): significant increase
- Relative Frequency kan^r/amp^r ([3]; 0.5 μg oligo, 1 μg plasmid, 10 μg LSY678 extract): 1.89 ×10^−5
- Relative Frequency kan^r/amp^r ([3]; 1 μg oligo, 1 μg pK^Sm4021, no extract): 0.002 ×10^−5
- Relative Frequency kan^r/amp^r ([3]; 1 μg oligo, 1 μg plasmid, 1 μg LSY678 extract): 0.32 ×10^−5
- Relative Frequency kan^r/amp^r ([3]; 1 μg oligo, 1 μg plasmid, 10 μg LSY678 extract): 3.66 ×10^−5 and 2.78 ×10^−5
- Relative Frequency kan^r/amp^r ([3]; 1 μg oligo, 1 μg plasmid, 20 μg LSY678 extract): 7.601 ×10^−5
- Relative Frequency kan^r/amp^r ([3]; 1 μg oligo, no plasmid, 20 μg LSY678 extract): 0.0 ×10^−5
- Relative Frequency kan^r/amp^r ([3]; 2.0 μg oligo, 1 μg plasmid, 10 μg LSY678 extract): 4.005 ×10^−5
- Relative Correction Efficiency ([3]; 10 μg extract LSY386 (Δrad52)): 25.7 and 26.7 and 19.9
- Relative Correction Efficiency ([3]; 10 μg extract LSY402 (Δrad51)): 5.15
- Relative Correction Efficiency ([3]; 10 μg extract LSY407 (Δrad57)): 2.13
- Relative Correction Efficiency ([3]; 10 μg extract LSY678 (wild type)): 1.17 and 1.08 and 1.63
- Relative Correction Efficiency ([3]; 10 μg extract LSY814 (Δmsh2)): 0.79
- Relative Correction Efficiency ([3]; 10 μg extract LSY837 (Δrad59)): 0.35
- Relative Correction Efficiency ([3]; 10 μg extract XS827-18C (Δrad54)): 1.36
- Relative Correction Efficiency ([3]; 10 μg extract YDR076W (Δrad55)): 1.27
- Relative Correction Efficiency ([3]; 10 μg extract YELO37C (Δrad23)): 1.04
- level of repair below wild-type levels ([3]; LSY678 extract expressing RAD52): 4 fold
- Relative Correction Efficiency ([3]; extract LSY386•p52 (Δrad52 expressing RAD52)): 2.31
- Relative Correction Efficiency ([3]; extract LSY678•p52 (wild type expressing RAD52)): 0.41
- Relative Correction Efficiency ([3]; extracts LSY386 (2 μg) + LSY678 (8 μg)): 2.91
- Relative Correction Efficiency ([3]; extracts LSY386 (2 μg) + YELO37C (8 μg)): 1.85
- Relative Correction Efficiency ([3]; extracts LSY386 (4 μg) + LSY678 (6 μg)): 5.45
- Relative Correction Efficiency ([3]; extracts LSY386 (4 μg) + YELO37C (6 μg)): 3.71
- Relative Correction Efficiency ([3]; extracts LSY386 (6 μg) + LSY678 (4 μg)): 10.47
- Relative Correction Efficiency ([3]; extracts LSY386 (6 μg) + YELO37C (4 μg)): 9.22
- Relative Correction Efficiency ([3]; extracts LSY386 (8 μg) + LSY678 (2 μg)): 14.36
- Relative Correction Efficiency ([3]; extracts LSY386 (8 μg) + YELO37C (2 μg)): 16.95
- Relative Correction Efficiency ([3]; oligo only, no plasmid, no extract): 0.0

B3: Cyc1/70T: modified single-stranded vector targeting the transcribed strand of mutant CYC1, three phosphorothioated linkages at each terminus, SEQ ID NO: 21 (nucleic acid)
DNA: dA*dG*dG*dTdGdCdTdAdCdAdCdTdTdTdTdCdAdAdGdAdCdTdAdGdAdTdGdTdCdTdAdCdAdAdTdGdCdCdAdCdAdCdCdGdTdGdGdAdAdAdAdGdGdGdTdGdGdCdCdCdAdCdAdTdAdAdG*dG*dT*dT
- No. of YPG Plate Colonies (CYC1 gene; [5]): lawn
- C.E. (CYC1 gene; YMH52, 5 μg oligo): 0.17 ×10^−4
- No. of YPG Plate Colonies (CYC1 gene; YMH52, 5 μg oligo): 57
- C.E. (CYC1 gene; YMH53, 5 μg oligo): 0.74 ×10^−4
- No. of YPG Plate Colonies (CYC1 gene; YMH53, 5 μg oligo): 281
- Average C.E. (CYC1 gene; YMH53 with PYNMRE11 + PYNXRS2): .263 ×10^−5
- Fold (CYC1 gene; YMH53 with PYNMRE11 + PYNXRS2): 8.29
- No. of YPG Plate Colonies (CYC1 gene; YMH53 with PYNMRE11 + PYNXRS2): 155
- Average C.E. (CYC1 gene; YMH53 with PYNRAD52 + PYNRAD54): .185 ×10^−5
- Fold (CYC1 gene; YMH53 with PYNRAD52 + PYNRAD54): 5.82
- No. of YPG Plate Colonies (CYC1 gene; YMH53 with PYNRAD52 + PYNRAD54): 103
- Average C.E. (CYC1 gene; YMH53 with pYN132): 0.03169 ×10^−5
- Fold (CYC1 gene; YMH53 with pYN132): 1
- C.E. (CYC1 gene; YMH54, 5 μg oligo): 0.14 ×10^−4
- No. of YPG Plate Colonies (CYC1 gene; YMH54, 5 μg oligo): 43
- C.E. (CYC1 gene; YMH55, 5 μg oligo): 0.38 ×10^−4
- No. of YPG Plate Colonies (CYC1 gene; YMH55, 5 μg oligo): 116

B4: βThal2: 71mer with three phosphorothioate linkages at 5′ and 3′ ends directing T to C in β-globin, SEQ ID NO: 28 (nucleic acid)
DNA: dT*dA*dA*dCdGdGdCdAdGdAdCdTdTdCdTdCdCdAdCdAdGdGdAdGdTdCdAdGdGdTdGdCdAdCdCdGdTdGdGdTdGdTdCdTdGdTdTdTdGdAdGdGdTdTdGdCdTdAdGdTdGdAdAdCdAdCdAdG*dT*dT*dG
- cells with corrected hygromycin also containing the edited β-globin gene [4]: approximately 10%

B5: Cyc1/70NT: modified single-stranded vector targeting the nontranscribed strand of mutant CYC1, three phosphorothioated linkages at each terminus, SEQ ID NO: 22 (nucleic acid)
DNA: dA*dA*dC*dCdTdTdAdTdGdTdGdGdGdCdCdAdCdCdCdTdTdTdTdCdCdAdCdGdGdTdGdTdGdGdCdAdTdTdGdTdAdGdAdCdAdTdCdTdAdGdTdCdTdTdGdAdAdAdAdGdTdGdTdAdGdCdA*dC*dC*dT
- No. of YPG Plate Colonies (CYC1 gene; [5]): lawn
- C.E. (CYC1 gene; YMH52, 5 μg oligo): 0.47 ×10^−4
- No. of YPG Plate Colonies (CYC1 gene; YMH52, 5 μg oligo): 186
- C.E. (CYC1 gene; YMH53, 5 μg oligo): 0.21 ×10^−4
- No. of YPG Plate Colonies (CYC1 gene; YMH53, 5 μg oligo): 73
- Average C.E. (CYC1 gene; YMH53 with PYNMRE11 + PYNXRS2): 0.322 ×10^−5
- Fold (CYC1 gene; YMH53 with PYNMRE11 + PYNXRS2): 57.48
- No. of YPG Plate Colonies (CYC1 gene; YMH53 with PYNMRE11 + PYNXRS2): 178
- Average C.E. (CYC1 gene; YMH53 with PYNRAD52 + PYNRAD54): 0.179 ×10^−5
- Fold (CYC1 gene; YMH53 with PYNRAD52 + PYNRAD54): 32.01
- No. of YPG Plate Colonies (CYC1 gene; YMH53 with PYNRAD52 + PYNRAD54): 109
- Average C.E. (CYC1 gene; YMH53 with pYN132): 0.0056 ×10^−5
- Fold (CYC1 gene; YMH53 with pYN132): 1
- C.E. (CYC1 gene; YMH54, 5 μg oligo): 0.28 ×10^−4
- No. of YPG Plate Colonies (CYC1 gene; YMH54, 5 μg oligo): 80
- C.E. (CYC1 gene; YMH55, 5 μg oligo): 2.99 ×10^−4
- No. of YPG Plate Colonies (CYC1 gene; YMH55, 5 μg oligo): 895
- Average C.E. (CYC1 gene; [6]): 0.04 ×10^−5
- Fold (CYC1 gene; [6]): 1.1
- No. of YPG Plate Colonies (CYC1 gene; [6]): 25
- Average C.E. (CYC1 gene; [7]): 0.52 ×10^−5
- Fold (CYC1 gene; [7]): 14.8
- No. of YPG Plate Colonies (CYC1 gene; [7]): 260
- Average C.E. (CYC1 gene; [8]): 0.22 ×10^−5
- Fold (CYC1 gene; [8]): 6.2
- No. of YPG Plate Colonies (CYC1 gene; [8]): 108
- Average C.E. (CYC1 gene; [9]): 0.09 ×10^−5
- Fold (CYC1 gene; [9]): 2.4
- No. of YPG Plate Colonies (CYC1 gene; [9]): 42
- Average C.E. (CYC1 gene; [10]): 0.78 ×10^−5
- Fold (CYC1 gene; [10]): 22.2
- No. of YPG Plate Colonies (CYC1 gene; [10]): 410
- Average C.E. (CYC1 gene; YMH55 with PYNXRS2, 5 μg oligo): 0.03 ×10^−5
- Fold (CYC1 gene; YMH55 with PYNXRS2, 5 μg oligo): 1.34
- No. of YPG Plate Colonies (CYC1 gene; YMH55 with PYNXRS2, 5 μg oligo): 22
- Average C.E. (CYC1 gene; [11]): 0.04 ×10^−5
- Fold (CYC1 gene; [11]): 1
- No. of YPG Plate Colonies (CYC1 gene; [11]): 19
- Average C.E. (CYC1 gene; [12]): 0.32 ×10^−5
- Fold (CYC1 gene; [12]): 9.1
- No. of YPG Plate Colonies (CYC1 gene; [12]): 166

B6: beta protein: protein expressed from the bet gene of the Red recombination system of bacteriophage lambda; expressed in yeast from pYNTβ (protein, UniProt P03698 1-261, looked up)
Recombination protein bet: MSTALATLAGKLAERVGMDSVDPQELITTLRQTAFKGDASDAQFIALLIVANQYGLNPWTKEIYAFPDKQNGIVPVVGVDGWSRIINENQQFDGMDFEQDNESCTCRIYRKDRNHPICVTEWMDECRREPFKTREGREITGPWQSHPKRMLRHKAMIQCARLAFGFAGIYDKDEAERIVENTAYTAERQPERDITPVNDETMQEINTLLIALDKTWDDDLLPLCSQIFRRDIRASSELTQAEAVKALGFLKQKAAEQKVAA
- correction efficiency per 10^5 transformants (CYC1 gene; beta protein expression, other experiments): 0.326
